According to article PMC10842378:

Assays:
[1] = target: FLAG-AP-DHX15 wild type (human) (UniProt O43143); assay: proximity labelling
[2] = target: FLAG-AP-DHX15 wild type (human) (UniProt O43143); assay: split reporter

Chain of FLAG-AP-DHX15 wild type (human) (O43143 whole entry): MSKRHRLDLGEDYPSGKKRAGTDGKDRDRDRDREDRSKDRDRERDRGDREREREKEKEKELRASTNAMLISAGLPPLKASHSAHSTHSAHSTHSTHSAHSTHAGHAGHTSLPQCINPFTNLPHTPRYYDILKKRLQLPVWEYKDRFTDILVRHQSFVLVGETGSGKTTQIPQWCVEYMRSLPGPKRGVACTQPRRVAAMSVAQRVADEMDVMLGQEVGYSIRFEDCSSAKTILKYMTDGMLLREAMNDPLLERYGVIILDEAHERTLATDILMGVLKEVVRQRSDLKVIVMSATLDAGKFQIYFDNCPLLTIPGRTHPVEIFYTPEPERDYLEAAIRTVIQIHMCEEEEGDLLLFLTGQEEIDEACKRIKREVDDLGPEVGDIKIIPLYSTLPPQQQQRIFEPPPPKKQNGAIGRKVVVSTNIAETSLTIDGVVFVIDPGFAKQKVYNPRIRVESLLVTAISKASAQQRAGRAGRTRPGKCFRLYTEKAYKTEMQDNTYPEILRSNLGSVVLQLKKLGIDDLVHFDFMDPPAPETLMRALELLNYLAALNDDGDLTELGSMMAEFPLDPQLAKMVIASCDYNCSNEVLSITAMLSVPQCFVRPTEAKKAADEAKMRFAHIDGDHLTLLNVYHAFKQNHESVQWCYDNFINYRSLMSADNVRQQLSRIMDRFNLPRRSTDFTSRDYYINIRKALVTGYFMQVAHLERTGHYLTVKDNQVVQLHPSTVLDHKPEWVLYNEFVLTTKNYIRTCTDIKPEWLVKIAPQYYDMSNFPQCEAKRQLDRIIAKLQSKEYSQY

| Substance | fold increase of HA-SUGP1-EX pull-down [1] [fold] | fold increase of total biotinylated protein against FL SUGP1 [2] [fold] |
| --- | --- | --- |
| HA-SUGP1-EX with the G-patch domain deleted (ΔGp) (from UniProt Q8IWZ8 1-645) (natural protein) | 1.9 |  |
| SUGP1 G-patch domain alone fused to an SV40 NLS (Gp-nls), HA-EX construct (domain or fragment) |  | 3.2 |
